The assay deals with T1, full-length Ebola GP on pseudotyped lentivirus (Zaire ebolavirus, UniProt Q05320 33-676).
T1 sequence: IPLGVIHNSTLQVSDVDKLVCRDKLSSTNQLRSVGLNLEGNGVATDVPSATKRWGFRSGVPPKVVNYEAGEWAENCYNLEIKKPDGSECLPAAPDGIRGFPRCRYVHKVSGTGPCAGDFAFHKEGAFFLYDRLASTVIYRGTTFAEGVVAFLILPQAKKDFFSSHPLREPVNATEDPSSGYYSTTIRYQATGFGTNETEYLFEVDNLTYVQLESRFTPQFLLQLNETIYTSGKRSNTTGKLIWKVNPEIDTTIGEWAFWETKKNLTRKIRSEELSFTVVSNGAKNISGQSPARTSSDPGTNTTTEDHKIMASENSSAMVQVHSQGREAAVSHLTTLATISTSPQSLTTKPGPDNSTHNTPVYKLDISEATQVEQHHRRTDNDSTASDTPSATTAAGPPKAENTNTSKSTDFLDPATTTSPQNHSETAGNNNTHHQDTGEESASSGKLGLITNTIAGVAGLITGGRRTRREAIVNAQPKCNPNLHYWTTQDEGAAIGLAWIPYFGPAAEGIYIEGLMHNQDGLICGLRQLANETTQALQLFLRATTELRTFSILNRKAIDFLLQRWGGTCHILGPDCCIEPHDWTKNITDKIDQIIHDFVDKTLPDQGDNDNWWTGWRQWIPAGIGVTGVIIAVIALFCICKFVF
The assay can be described thus: cell-based or functional assay.

Consider one molecule from patent publication US20250243261A1 (CZ BIOHUB SF, published 2025).

B1: mAb114 WT IgG (antibody, V domains shown)
VH: EVQLVESGGGLIQPGGSLRLSCAASGFALRMYDMHWVRQTIDKRLEWVSAVGPSGDTYYADSVKGRFAVSRENAKNSLSLQMNSLTAGDTAIYYCVRSDRGVAGLFDSWGQGILVTVSS
VL: DIQMTQSPSSLSASVGDRITITCRASQAFDNYVAWYQQRPGKVPKLLISAASALHAGVPSRFSGSGSGTHFTLTISSLQPEDVATYYCQNYNSAPLTFGGGTKVEIK
As to B1, the “Ebola GP pseudotyped lentivirus IC50” value was found to be 1.43 nM.
